The source of these data is paper PMC10147923, “Pain-causing stinging nettle toxins target TMEM233 to modulate NaV1.7 function” (Nature Communications, 2023).

Several values for one entry are separate records, joined by “and”; a condition that tells them apart may be missing. Equal values may be shown once. Read-outs that look alike come from different tables or passages of the source.

The target of one test is NaV1.7 (Homo sapiens, UniProt Q15858). It is filed as cell-based. The method, then:
To determine recovery from fast inactivation, a 20 ms pulse to 0 mV from a holding potential of −90 mV was used to induce fast inactivation. A subsequent recovery period, ranging from 1 ms to 2216 ms in 50% increments at −90 mV, was followed by a last 20 ms test pulses to 0 mV to determine the time-dependence of recovery from fast inactivation. The proportion of available channels was determined by normalizing peak currents from the last to the first pulse. A two-phase exponential equation was fit to the normalized current, plotted as a function of time, to determine the time constants τ1 and τ2 of recovery from fast inactivation.

The next test has as its system hNaV1.7/TMEM233. Briefly: Persistent current, CHO hNaV1.7/TMEM233. It counts as cell-based, human. Particulars: Supplementary Fig 1e.

NaV1.7, sequence (Q15858 whole entry): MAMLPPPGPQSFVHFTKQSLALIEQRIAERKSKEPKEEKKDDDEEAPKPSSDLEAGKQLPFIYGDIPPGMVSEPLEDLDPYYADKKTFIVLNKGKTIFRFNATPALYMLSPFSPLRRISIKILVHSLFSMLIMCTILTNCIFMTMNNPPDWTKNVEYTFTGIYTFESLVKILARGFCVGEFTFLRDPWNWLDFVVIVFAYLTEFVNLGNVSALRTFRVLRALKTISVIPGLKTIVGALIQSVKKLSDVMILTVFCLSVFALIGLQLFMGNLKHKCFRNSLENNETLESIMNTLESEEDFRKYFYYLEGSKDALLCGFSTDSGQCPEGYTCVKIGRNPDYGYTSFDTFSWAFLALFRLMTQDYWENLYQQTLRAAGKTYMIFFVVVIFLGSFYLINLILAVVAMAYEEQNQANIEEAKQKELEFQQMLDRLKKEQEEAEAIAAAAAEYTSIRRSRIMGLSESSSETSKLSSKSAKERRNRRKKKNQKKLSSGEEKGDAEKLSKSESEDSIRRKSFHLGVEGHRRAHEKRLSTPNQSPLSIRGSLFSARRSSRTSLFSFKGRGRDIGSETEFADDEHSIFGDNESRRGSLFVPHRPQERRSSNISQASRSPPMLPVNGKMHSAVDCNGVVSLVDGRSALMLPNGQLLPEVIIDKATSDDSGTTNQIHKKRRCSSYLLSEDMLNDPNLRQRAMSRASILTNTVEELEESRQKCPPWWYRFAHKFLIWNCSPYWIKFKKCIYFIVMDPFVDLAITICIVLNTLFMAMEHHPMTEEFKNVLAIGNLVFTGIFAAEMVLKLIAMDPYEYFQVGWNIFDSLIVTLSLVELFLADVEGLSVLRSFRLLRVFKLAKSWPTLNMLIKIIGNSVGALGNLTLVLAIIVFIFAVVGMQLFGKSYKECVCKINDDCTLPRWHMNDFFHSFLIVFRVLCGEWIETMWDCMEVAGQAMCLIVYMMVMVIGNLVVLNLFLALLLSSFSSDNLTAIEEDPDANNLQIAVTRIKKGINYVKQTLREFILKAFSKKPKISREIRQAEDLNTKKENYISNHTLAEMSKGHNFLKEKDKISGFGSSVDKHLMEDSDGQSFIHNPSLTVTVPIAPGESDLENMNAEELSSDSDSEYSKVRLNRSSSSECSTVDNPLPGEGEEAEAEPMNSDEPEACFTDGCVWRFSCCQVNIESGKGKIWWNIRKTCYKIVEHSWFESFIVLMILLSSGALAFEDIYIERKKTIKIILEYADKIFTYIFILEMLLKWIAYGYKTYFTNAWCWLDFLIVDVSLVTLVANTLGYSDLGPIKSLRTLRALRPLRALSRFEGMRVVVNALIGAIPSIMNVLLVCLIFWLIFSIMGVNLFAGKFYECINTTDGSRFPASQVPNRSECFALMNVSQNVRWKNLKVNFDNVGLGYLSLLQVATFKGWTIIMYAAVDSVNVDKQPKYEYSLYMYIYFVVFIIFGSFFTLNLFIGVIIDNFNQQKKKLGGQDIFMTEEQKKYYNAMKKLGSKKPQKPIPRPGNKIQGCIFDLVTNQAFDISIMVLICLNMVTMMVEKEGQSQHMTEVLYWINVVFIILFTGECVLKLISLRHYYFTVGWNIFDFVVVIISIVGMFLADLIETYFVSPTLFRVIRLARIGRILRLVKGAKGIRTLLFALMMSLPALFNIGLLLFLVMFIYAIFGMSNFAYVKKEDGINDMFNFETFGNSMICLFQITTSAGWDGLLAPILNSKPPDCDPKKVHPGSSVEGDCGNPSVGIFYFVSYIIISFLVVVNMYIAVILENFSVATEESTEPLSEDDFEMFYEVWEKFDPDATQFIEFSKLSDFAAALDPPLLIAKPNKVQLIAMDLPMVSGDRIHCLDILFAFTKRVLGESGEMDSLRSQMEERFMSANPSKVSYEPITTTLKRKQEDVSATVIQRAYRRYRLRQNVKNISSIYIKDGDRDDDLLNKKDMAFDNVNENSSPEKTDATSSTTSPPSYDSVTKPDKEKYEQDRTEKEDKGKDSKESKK
NaV1.7, sequence (Q07699 19-218, further chain): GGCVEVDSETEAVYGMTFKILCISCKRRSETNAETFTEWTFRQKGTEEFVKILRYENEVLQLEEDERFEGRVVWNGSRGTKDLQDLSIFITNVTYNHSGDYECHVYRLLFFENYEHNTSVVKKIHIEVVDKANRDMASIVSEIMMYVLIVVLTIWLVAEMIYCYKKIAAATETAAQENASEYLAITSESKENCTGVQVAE

B1: TMEM233 (protein)
chain: MSQYAPSPDFKRALDSSPEANTEDDKTEEDVPMPKNYLWLTIVSCFCPAYPINIVALVFSIMSLNSYNDGDYEGARRLGRNAKWVAIASIIIGLLIIGISCAVHFTRNA
On to B1, for which the “Tau (Fast) RFFI, individual values” was 7.679 with NaV1.7; 8.086 and 8.074 and 13.19 and 9.314 and 15.71 and 7.639 and 9.188 and 12.89 and 5.959 and 5.962 and 16.54 and 10.99 and 8.961 and 6.569 with NaV1.7 (Fig 6i, NaV1.7/β1/TMEM233, single replicates). Moreover, the “Tau (Fast) RFFI, mean” value in the test with NaV1.7 (Fig 6i, NaV1.7/β1/TMEM233, mean of n = 18, NaV1.7/β1 (Mock) mean 6.695, n = 8) is reported as 9.635. For the same molecule, the “Tau (Fast) RFFI, difference between means (Mock - TMEM233) ± SEM” value with NaV1.7 (Fig 6i, unpaired t test P = 0.0236, 95% CI -5.450 to -0.4305) is -2.940 ± 1.216. The “Tau Fast, mean” value with NaV1.7 (Fig 6m, co-expression with NaV1.7/β1, mean of n = 7, NaV1.7/β1 mean 6.051, n = 16) amounted to 10.53. Moreover, in the test with NaV1.7 (Fig 6m, co-expression with NaV1.7/β1, single replicates), the “Tau Fast, individual values” was 9.314 and 15.71 and 7.639 and 8.588 and 10.41 and 9.188 and 12.89. The “Tau Fast, mean diff. NaV1.7/β1/TMEM233 vs. NaV1.7/β1” value in the test with NaV1.7 (Fig 6m, Tukey's adjusted P 0.0002, 95% CI 2.091 to 6.876) worked out at 4.484. Besides, the “Tau Fast, mean diff. vs. NaV1.7/β1/TMEM233 35-109” value with NaV1.7 (Fig 6m, Tukey's adjusted P 0.0026, 95% CI 1.415 to 7.059) is on record as 4.237. Moreover, in the test on hNaV1.7/TMEM233 (TMEM233 column, toxin not named, mean of n = 16, Control mean -0.0001975, n = 6), the “Persistent Current, mean” value is reported as -2.01. In addition, the “Persistent Current, individual values” with hNaV1.7/TMEM233 (TMEM233 column, toxin not named, single replicates) is -0.5607 and -1.881 and -2.243 and -3.609 and -4.773 and -1.301 and -2.129 and -2.32 and -2.174 and -2.568 and -0.4229 and -2.1714 and -2.227 and -1.642. In addition, in the test on hNaV1.7/TMEM233 (unpaired t test P = 0.0003, 95% CI -2.968 to -1.051), the “Persistent Current, difference between means (TMEM233 - Control) ± SEM” value is recorded as -2.010 ± 0.4595.
